Test results taken from the RNAGym collection of RNA variant scans (doi:10.7554/elife.80360).

B1: Twister Ribozyme (parent)
chain: AACACUGCCAAUGCCGGUCCCAAGCCCGGAUAAAAGUGGAGGGGGCGG

Variants of: B1
Assay: self-cleavage, relative activity (ratio to wild type); higher = more cleavage; co-transcriptional

First: AACACCGCCAACGCCGGUCCCAAGCCCGGAUAAAAGUGGAGGGGGCGG
Second: AACACCGCCAAGGCCGGUCCCAAGCCCGGAUAAAAGUGGAGGGGGCGG
The self-cleavage of the first is higher: 0.613 for the first, 0.465 for the second.

First: AACACCGCCAAUGCCGGACCCAAGCCCGGAUAAAAGUGGAGGGGGCGG
Second: AACACCGCCAAUGCCGGUCCCAAGCCCGGAAAAAAGUGGAGGGGGCGG
The self-cleavage of the first is lower: 0.0773 for the first, 0.581 for the second.

Compared with AACACCGCCAAUGCCGGUCCCAAGCCCGGACAAAAGUGGAGGGGGCGG, AACACCGCCAAUGCCGGUCCCAAGCCCGGAGAAAAGUGGAGGGGGCGG is lower in self-cleavage: 0.712 for the first, 0.422 for the second.

Compared with AACACCGCCAAUGCCGGUCCCAAGCCCGGAUAAAAGGGGAGGGGGCGG, AACACGGCCCAUGCCGGUCCCAAGCCCGGAUAAAAGUGGAGGGGGCGG is lower in self-cleavage: 0.181 for the first, 0.136 for the second.

Compared with AACACGGCCGAUGCCGGUCCCAAGCCCGGAUAAAAGUGGAGGGGGCGG, AACACGGCCACUGCCGGUCCCAAGCCCGGAUAAAAGUGGAGGGGGCGG is lower in self-cleavage: 0.644 for the first, 0.173 for the second.

Compared with AACACGGCCAGUGCCGGUCCCAAGCCCGGAUAAAAGUGGAGGGGGCGG, AACACGGCCAAUGCCGGUCCCCAGCCCGGAUAAAAGUGGAGGGGGCGG is lower in self-cleavage: 0.52 for the first, 0.485 for the second.

First: AACACGGCCAAUGCCGGUCCCGAGCCCGGAUAAAAGUGGAGGGGGCGG
Second: AACACGGCCAAUGCCGGUCCCACGCCCGGAUAAAAGUGGAGGGGGCGG
The self-cleavage of the first is higher: 0.106 for the first, 0.0334 for the second.

First: AACACGGCCAAUGCCGGUCCCAGGCCCGGAUAAAAGUGGAGGGGGCGG
Second: AACACGGCCAAUGCCGGUCCCAAGCCCGGCUAAAAGUGGAGGGGGCGG
The self-cleavage of the first is lower: 0.0873 for the first, 0.246 for the second.

First: AACACGGCCAAUGCCGGUCCCAAGCCCGGAUCAAAGUGGAGGGGGCGG
Second: AACACGGCCAAUGCCGGUCCCAAGCCCGGAUGAAAGUGGAGGGGGCGG
The self-cleavage of the first is higher: 0.419 for the first, 0.337 for the second.

First: AACACGGCCAAUGCCGGUCCCAAGCCCGGAUACAAGUGGAGGGGGCGG
Second: AACACGGCCAAUGCCGGUCCCAAGCCCGGAUAAUAGUGGAGGGGGCGG
The self-cleavage of the first is lower: 0.367 for the first, 0.493 for the second.

Going from AACACGGCCAAUGCCGGUCCCAAGCCCGGAUAAAGGUGGAGGGGGCGG to AACACGGCCAAUGCCGGUCCCAAGCCCGGAUAAAAGUGGCGGGGGCGG, the self-cleavage falls from 0.281 to 0.0854.

Compared with AACACGGCCAAUGCCGGUCCCAAGCCCGGAUAAAAGUGGUGGGGGCGG, AACACGGGCAAUGCCGGUCCCAAGCCCGGAUAAAAGUGGAGGGGGCGG is higher in self-cleavage: 0.181 for the first, 0.2 for the second.

Compared with AACACGGUCAAUGCCGGUCCCAAGCCCGGAUAAAAGUGGAGGGGGCGG, AACACGGCAAAUGCCGGUCCCAAGCCCGGAUAAAAGUGGAGGGGGCGG is higher in self-cleavage: 0.16 for the first, 0.279 for the second.

Going from AACACGGCCAAUGACGGUCCCAAGCCCGGAUAAAAGUGGAGGGGGCGG to AACACGGCCAAUGGCGGUCCCAAGCCCGGAUAAAAGUGGAGGGGGCGG, the self-cleavage falls from 0.313 to 0.0983.

Compared with AACACGGCCAAUGCAGGUCCCAAGCCCGGAUAAAAGUGGAGGGGGCGG, AACACGGCCAAUGCUGGUCCCAAGCCCGGAUAAAAGUGGAGGGGGCGG is higher in self-cleavage: 0.301 for the first, 0.569 for the second.

First: AACACGGCCAAUGCCGGUACCAAGCCCGGAUAAAAGUGGAGGGGGCGG
Second: AACACGGCCAAUGCCGGUGCCAAGCCCGGAUAAAAGUGGAGGGGGCGG
The self-cleavage of the first is higher: 0.0816 for the first, 0 for the second.

Compared with AACACGGCCAAUGCCGGUUCCAAGCCCGGAUAAAAGUGGAGGGGGCGG, AACACGGCCAAUGCCGGUCCGAAGCCCGGAUAAAAGUGGAGGGGGCGG is lower in self-cleavage: 0.264 for the first, 0.116 for the second.

Compared with AACACGGCCAAUGCCGGUCCCAAGGCCGGAUAAAAGUGGAGGGGGCGG, AACACGGCCAAUGCCGGUCCCAAGUCCGGAUAAAAGUGGAGGGGGCGG is higher in self-cleavage: 0.0804 for the first, 0.252 for the second.

Compared with AACACGGCCAAUGCCGGUCCCAAGCACGGAUAAAAGUGGAGGGGGCGG, AACACGGCCAAUGCCGGUCCCAAGCUCGGAUAAAAGUGGAGGGGGCGG is higher in self-cleavage: 0.0837 for the first, 0.0975 for the second.

First: AACACGGCCAAUGCCGGUCCCAAGCCAGGAUAAAAGUGGAGGGGGCGG
Second: AACACGGCCAAUGCCGGUCCCAAGCCGGGAUAAAAGUGGAGGGGGCGG
The self-cleavage of the first is higher: 0.0375 for the first, 0.0245 for the second.

Compared with AACACGGCCAAUGCCGGUCCCAAGCCUGGAUAAAAGUGGAGGGGGCGG, AACACGGCCAAUGCCGGUCCCAAGCCCGGAUAAAAGUGGAGGGGGAGG is higher in self-cleavage: 0.186 for the first, 0.411 for the second.

First: AACACGGCCAAUGCCGGUCCCAAGCCCGGAUAAAAGUGGAGGGGGGGG
Second: AACACGGCCAAUGCCGGUCCCAAGCCCGGAUAAAAGUGGAGGGGGUGG
The self-cleavage of the first is lower: 0.406 for the first, 0.632 for the second.

Going from AACACGACCAAUGCCGGUCCCAAGCCCGGAUAAAAGUGGAGGGGGCGG to AACACGUCCAAUGCCGGUCCCAAGCCCGGAUAAAAGUGGAGGGGGCGG, the self-cleavage rises from 0.501 to 0.626.

Compared with AACACGGCCAAUACCGGUCCCAAGCCCGGAUAAAAGUGGAGGGGGCGG, AACACGGCCAAUCCCGGUCCCAAGCCCGGAUAAAAGUGGAGGGGGCGG is lower in self-cleavage: 0.086 for the first, 0.078 for the second.

Compared with AACACGGCCAAUUCCGGUCCCAAGCCCGGAUAAAAGUGGAGGGGGCGG, AACACGGCCAAUGCCCGUCCCAAGCCCGGAUAAAAGUGGAGGGGGCGG is higher in self-cleavage: 0.0456 for the first, 0.156 for the second.

Going from AACACGGCCAAUGCCUGUCCCAAGCCCGGAUAAAAGUGGAGGGGGCGG to AACACGGCCAAUGCCGAUCCCAAGCCCGGAUAAAAGUGGAGGGGGCGG, the self-cleavage falls from 0.296 to 0.075.

First: AACACGGCCAAUGCCGCUCCCAAGCCCGGAUAAAAGUGGAGGGGGCGG
Second: AACACGGCCAAUGCCGUUCCCAAGCCCGGAUAAAAGUGGAGGGGGCGG
The self-cleavage of the first is lower: 0.0484 for the first, 0.0541 for the second.
